Test results taken from paper PMC4902918, “Production in Pichia pastoris of complementary protein-based polymers with heterodimer-forming WW and PPxY domains” (Microbial Cell Factories, 2016).
No end group written: not given here. C4^P polymer block = not defined here; O‑glycan = not defined here

How the values were obtained:
[1] = target: T1, C4^P-D^WW protein polymer (C4^P polymer with a C-terminal WW domain WWP1-1) (human); assay: other fluorescence titration; steady-state tryptophan fluorescence (excitation 295 nm, emission 340 nm); 500 uL of 10 uM C4^P-D^WW in the cuvette, 500 uM ligand added stepwise up to ~24 uM; 10 mM sodium phosphate pH 7, RT; triplicate, fit on averaged data; conditions: both partners purified
[2] = target: T1, C4^P-D^WW protein polymer (C4^P polymer …); assay: ITC; MicroCal VP-ITC, 25 °C, 10 mM sodium phosphate pH 7; 200 uM C4^P-D^WW (1.4 mL) in the cell, 2.9 mM ligand in the syringe, 63 injections of 4 uL; triplicate, Kd values averaged; conditions: both partners purified

T1 sequence (chain, as listed by the source): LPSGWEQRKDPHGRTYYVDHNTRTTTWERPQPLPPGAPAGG

Row | Kd [1] [µM] | Kd [2] [µM] | stoichiometry N [2] | Binder
1 | 2.5 | 9.3 | ~0.9 | {C4^P polymer block}-EYPPYPPPPYPS(O‑glycan)GPAGG (other, reading uncertain; also: O-glycans heterogeneous, tentatively Man3 to Man7, mostly phosphorylated in diester linkage, minor fraction nonglycosylated)
2 | 2.7 | 9.2 | ~0.9 | {C4^P polymer block}-EYPPYPPPPYPAGPAGG (other, reading uncertain; also: nonglycosylated) [C4^P-D^PPxY* protein polymer (Ser12 to Ala mutant of the PPxY module, nonglycosylated)]
